Series [1] deals with T1, IL-23 (human, p19/p40 heterodimer) (Homo sapiens, UniProt Q9NPF7;P29460 SEQ:20-189,SEQ:23-328). Put plainly: filter; 1X PBS, 0.1 mg/mL BSA, 30 min RT. The conditions noted are these: tags: R&D Systems, carrier free; label: 32P. As for the experimental part:
(§1) rRfY mIL-23 Protein Binding Analysis: Dot blot binding assays were performed throughout the selections to monitor the protein binding affinity of the pools as previously described. When a significant level of binding of RNA in the presence of mIL-23 was observed, the pools were cloned using a TOPO TA cloning kit (Invitrogen, Carlsbad, Calif.) according to the manufacturer's instructions. For both mIL-23 selections, the Round 7 pool templates were cloned, and 16 individual clones from each selection were assayed using an 8-point mIL-23 titration. Seven of the 32 total clones screened had specific binding curves and are listed below in Table 16. […] Clones with high affinity to mIL-23 were subsequently screened for protein binding against mouse IL-12, human IL-23 and human IL-12 in the same manner.

Series [2] addresses T2, IL-12 (mouse, p35/p40 heterodimer) (Mus musculus, UniProt P43431;P43432 SEQ:23-215,SEQ:23-335).
T2 sequence 1: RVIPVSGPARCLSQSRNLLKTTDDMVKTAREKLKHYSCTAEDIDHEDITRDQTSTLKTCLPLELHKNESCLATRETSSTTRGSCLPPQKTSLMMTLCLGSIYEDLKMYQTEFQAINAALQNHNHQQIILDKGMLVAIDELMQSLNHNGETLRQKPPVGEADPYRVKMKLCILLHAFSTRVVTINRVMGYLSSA
T2 sequence 2: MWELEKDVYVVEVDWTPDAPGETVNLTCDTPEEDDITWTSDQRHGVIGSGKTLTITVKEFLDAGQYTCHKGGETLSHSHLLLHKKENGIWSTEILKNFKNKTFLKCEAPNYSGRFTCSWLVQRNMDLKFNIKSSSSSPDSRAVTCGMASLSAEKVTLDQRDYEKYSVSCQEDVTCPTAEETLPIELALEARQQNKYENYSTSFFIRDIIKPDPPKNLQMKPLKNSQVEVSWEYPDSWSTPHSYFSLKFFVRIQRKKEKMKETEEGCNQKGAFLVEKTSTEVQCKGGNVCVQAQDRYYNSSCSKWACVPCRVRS
Put plainly: filter; 1X PBS, 0.1 mg/mL BSA, 30 min RT. The following applies: label: 32P. As for the experimental part:
as §1

Series [3] has as its target T3, IL-12 (human, p35/p40 heterodimer) (Homo sapiens, UniProt P29459;P29460 SEQ:57-253,SEQ:23-328). Put plainly: filter; 1X PBS, 0.1 mg/mL BSA, 30 min RT. The following applies: label: 32P. How it is done: as §1
In series [4] the target is T4, IL-23 (mouse, p19/p40 heterodimer) (Mus musculus, UniProt Q9EQ14;P43432 SEQ:22-196,SEQ:23-335).
T4 sequence 1: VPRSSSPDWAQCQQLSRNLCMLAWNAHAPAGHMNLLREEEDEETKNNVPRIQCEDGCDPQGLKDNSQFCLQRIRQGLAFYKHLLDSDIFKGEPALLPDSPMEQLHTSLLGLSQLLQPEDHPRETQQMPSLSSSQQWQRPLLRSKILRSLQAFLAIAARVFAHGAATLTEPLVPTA
T4 sequence 2: T2 sequence 2
Put plainly: filter; 1X PBS, 0.1 mg/mL BSA, 30 min RT. The conditions noted are these: tags: isolated in-house; label: 32P. How it is done: as §1

The target of series [5] is T1, IL-23 (human, p19/p40 heterodimer). Put plainly: filter; PBS, tRNA, ssDNA, BSA. The following applies: tags: R&D Systems, carrier free. As for the experimental part: (§2) The clones were 5′end labeled with γ-³²P ATP, and were assayed for both IL-23 and IL-12 binding in a 3-point dot blot screen (0 nM, 20 nM, and 100 nM h-IL-23; 0 nM, 20 nM, and 100 nM h-IL-12) (data not shown). […] KD values were determined by fitting an equation describing a 1:1 RNA:protein complex to the resulting data (fraction aptamer bound=amplitude*([IL-23]/(KD+[IL-23]))+background binding) (KaleidaGraph v. 3.51, Synergy Software). Results of protein binding characterization for the higher affinity clones are tabulated in Table 13, and corresponding clone sequences are listed in Table 12.

In series [6] the target is T3, IL-12 (human, p35/p40 heterodimer). Put plainly: filter; PBS, tRNA, ssDNA, BSA. As for the experimental part:
as §2

Series [7] concerns the target T1, IL-23 (human, p19/p40 heterodimer). Put plainly: filter; 1X PBS, tRNA, ssDNA, BSA, 30 min RT. The conditions noted are these: tags: R&D Systems, carrier free; label: 5'-32P; G4 (predicted). How it is done:
as §2

The target of series [8] is T3, IL-12 (human, p35/p40 heterodimer). Briefly: filter; 1X PBS, tRNA, ssDNA, BSA, 30 min RT. The following applies: label: 5'-32P; G4 (predicted). How it is done:
as §2

Positions count from the first letter of the chain named.

T3 sequence (P29459 23-219, chain 1 of 2): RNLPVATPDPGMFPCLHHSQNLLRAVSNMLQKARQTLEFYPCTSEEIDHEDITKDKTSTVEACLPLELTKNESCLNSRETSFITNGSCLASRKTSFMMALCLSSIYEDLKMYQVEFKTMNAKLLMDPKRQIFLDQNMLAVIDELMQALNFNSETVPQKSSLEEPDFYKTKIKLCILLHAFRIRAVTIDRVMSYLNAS
T3 sequence (P29460 23-328, chain 2 of 2): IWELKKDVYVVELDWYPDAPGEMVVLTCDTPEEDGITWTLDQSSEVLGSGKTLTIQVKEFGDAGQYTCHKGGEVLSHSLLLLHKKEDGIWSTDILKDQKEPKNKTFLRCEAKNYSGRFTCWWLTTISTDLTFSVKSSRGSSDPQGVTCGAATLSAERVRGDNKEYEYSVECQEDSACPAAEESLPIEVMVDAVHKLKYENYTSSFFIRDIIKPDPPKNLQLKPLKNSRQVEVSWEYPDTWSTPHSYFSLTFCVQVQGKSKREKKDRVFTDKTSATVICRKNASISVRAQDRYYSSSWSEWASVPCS
T1 sequence (Q9NPF7 20-189, chain 1 of 2): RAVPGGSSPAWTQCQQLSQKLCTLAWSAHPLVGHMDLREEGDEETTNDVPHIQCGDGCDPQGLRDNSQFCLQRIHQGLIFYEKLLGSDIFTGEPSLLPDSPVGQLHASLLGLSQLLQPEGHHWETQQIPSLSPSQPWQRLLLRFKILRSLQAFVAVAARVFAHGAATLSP
T1 sequence (P29460 23-328, chain 2 of 2): as the sequence (P29460 23-328, chain 2 of 2) above

B1: ARC1628 (ssRNA)
RNA: GGAGCGCACUCAGCCACAGGUGGCUUAAUACUGUAAAGACGUGCGCGCAGAGGGAUUUUCGACCUCUCUGCUAGC
modifications: 2'-F all C and U (rRfY)
The term Kd denotes the free concentration of one partner at which half of the binding sites on the other are occupied at equilibrium, for simple one-to-one binding. Turning to B1, the Kd amounted to 52 nM in series [1], 6 nM in series [2], 161 nM in series [3] and 2 nM in series [4].

B2: ARC635 (mixed)
RNA: GGGAGAGGAGAGAACGUUCUACAGGCUCAAAAGAGGGGGAUGUGGGAGGGGGUCGAUCGAUCGAUCAUCGAUG
modifications: deoxy A,G; 2'-OMe C,U
B2: the Kd in series [5] stood at 172 nM; in series [6], 431 nM.

B3: ARC621 (mixed)
RNA: GGGAGAGGAGAGAACGUUCUACAGGCGGUUACGGGGGAUGCGGGUGGGACAGGUCGAUCGAUCGAUCAUCGAUG
modifications: 2'-deoxy A and G, 2'-OMe C and U (dRmY)
B3: the Kd in series [7] is 28.8 nM; in series [8], 112 nM.

B4: ARC611 (mixed)
RNA: GGGAGAGGAGAGAACGUUCUACAGGCAAGGCAAUUGGGGAGUGUGGGUGGGGGGUCGAUCGAUCGAUCAUCGAUG
modifications: 2'-deoxy A and G, 2'-OMe C and U (dRmY)
For the molecule B4, the Kd is 21.3 nM in series [7] and 123 nM in series [8].

B5: ARC620 (mixed)
RNA: B4 RNA with C26A, A32G, A33C, G37C, A40G, U42G, G46A, U48G, G50A
modifications: deoxy A,G; 2'-OMe C,U
B5: the Kd came to 44.8 nM in series [5] and 179 nM in series [6].

B6: ARC642 (mixed)
RNA: GGGAGAGGAGAGAACGUUCUACAGGCGCAGCCAGCGGGGAGUGAGGGUGGGGGUCGAUCGAUCGAUCAUCGAUG
modifications: deoxy A,G; 2'-OMe C,U
Regarding B6, the Kd in series [5] amounted to 37.2 nM; in series [6] it was 188 nM.

B7: ARC645 (mixed)
RNA: GGGAGAGGAGAGAACGUUCUACAGGUAGGCAAGAUAUUGGGGGAAGCGGGUGGGGUCGAUCGAUCGAUCAUCGAUG
modifications: deoxy A,G; 2'-OMe C,U
Regarding B7, the dissociation constant (Kd) in series [5] was 33.5 nM; in series [6], 137 nM.

B8: ARC646 (mixed)
RNA: GGGAGAGGAGAGAACGUUCUACACAUGGCUCGAAAGAGGGGCGUGAGGGUGGGGUCGAUCGAUCGAUCAUCGAUG
modifications: deoxy A,G; 2'-OMe C,U
Turning to B8, the values for the Kd in series [5] and in series [6] were 208 nM and 383 nM, respectively.

B9: ARC1632 (ssRNA)
RNA: GGAGCGCACUCAGCCACCGGCUUAAUAUCCAAUAGGAACGUUCGCUCUGAGCAGGCGUUUCGACCUCUCUGCUAGC
modifications: 2'-F all C and U (rRfY)
In the case of B9, the Kd was 91 nM in series [1], 16 nM in series [2], 186 nM in series [3] and 13 nM in series [4].

B10: ARC1631 (ssRNA)
RNA: GGAGCGCACUCAGCCACGCCUACAAUUCACUGUGAUAUAUCGAAUUAUAGCCCUGGUUUCGACCUCUCUGCUAGC
modifications: 2'-F all C and U (rRfY)
For the molecule B10, the Kd in series [1] came out at 39 nM; in series [2], 72 nM; in series [3] it was 69 nM; in series [4], 33 nM.

B11: ARC643 (mixed)
RNA: GGGAGAGGAGAGAACGUUCUACAGGCCGAUGAGGGGGAGCAGUGGGUGGGGGGUCGAUCGAUCGAUCAUCGAUG
modifications: deoxy A,G; 2'-OMe C,U
On to B11, for which the Kd in series [5] was 71.6 nM; in series [6] it was 309 nM.

B12: ARC1634 (ssRNA)
RNA: GGAGCGCACUCAGCCACCUUGGGCUUAAUACCUAUCGGAUGUGCGCCUAGCACGGAAUUUCGACCUCUCUGCUAGC
modifications: 2'-F all C and U (rRfY)
Take B12: the equilibrium dissociation constant (Kd) was 39 nM in series [1], 29 nM in series [2], 63 nM in series [3] and 3 nM in series [4].

B13: ARC644 (mixed)
RNA: GGGAGAGGAGAGAACGUUCUACUAGUGAGGCGGUAACGGGGGGUGAGGGUGGGGUCGAUCGAUCGAUCAUCGAUG
modifications: deoxy A,G; 2'-OMe C,U
Consider B13, for which the Kd in series [5] worked out at 34.5 nM; in series [6], 193 nM.

B14: ARC1629 (ssRNA)
RNA: GGAGCGCACUCAGCCACCGUAAUUCACAAGGUCCCUGAGUGCAGGGUUGUAUGUUUGUUUCGACCUCUCUGCUAGC
modifications: 2'-F all C and U (rRfY)
For B14, the Kd worked out at 31 nM in series [1], 103 nM in series [2], 75 nM in series [3] and 34 nM in series [4].

B15: ARC1633 (ssRNA)
RNA: GGAGCGCACUCAGCCACAGCUCGGUGGCUUAAUAUCUAUGUGAACGUGCGCAACAGCUUUCGACCUCUCUGCUAGC
modifications: 2'-F all C and U (rRfY)
In the case of B15, the dissociation constant (Kd) came to 79 nM in series [1], 44 nM in series [2], 195 nM in series [3] and 17 nM in series [4].

B16: ARC616 (mixed)
RNA: GGGAGAGGAGAGAACGUUCUACGAUAUAGGCGGUACGGGGGGAGUGGGCUGGGGUCGAUCGAUCGAUCAUCGAUG
modifications: 2'-deoxy A and G, 2'-OMe C and U (dRmY)
B16: the Kd in series [7] was 13.1 nM; in series [8], 52.1 nM.

B17: ARC632 (mixed)
RNA: GGGAGAGGAGAGAACGUUCUACAAUUGCAGGUGGUGCCGGGGGUUGGGGGCGGGUCGAUCGAUCGAUCAUCGAUG
modifications: 2'-deoxy A and G, 2'-OMe C and U (dRmY)
In the case of B17, the values for the Kd in series [7] and in series [8] were 19.1 nM and 63.9 nM, respectively.

B18: ARC628 (mixed)
RNA: GGGAGAGGAGAGAACGUUCUACAGGCAAGGCAAUUGGGGAGCGUGGGUGGGGGGGUCGAUCGAUCGAUCAUCGAUG
modifications: deoxy A,G; 2'-OMe C,U
Consider B18, for which the equilibrium dissociation constant (Kd) in series [5] worked out at 57.8 nM; in series [6] it was 146 nM.

B19: ARC1630 (ssRNA)
RNA: GGAGCGCACUCAGCCACUCUACUCGAUAUAGUUUAUCGAGCCGGUGGUAGAUUAUGAUUUCGACCUCUCUGCUAGC
modifications: 2'-F all C and U (rRfY)
Take B19: the dissociation constant (Kd) in series [1] came to 65 nM; in series [2], 18 nM; in series [3], 239 nM; in series [4] it was 14 nM.
